Experimental data published in patent US20230064378A1.

Experiments:
[1] = target: human FcγRI (CD64) extracellular domain (human) (UniProt P12314); test: SPR, antibody captured on Protein A, receptor ECD as analyte, 25 °C
[2] = target: human FcγRIIb (CD32b) extracellular domain (human) (UniProt P31994); test: SPR, antibody captured on Protein A, steady state, 25 °C
[3] = target: human FcγRIIA_131H (CD32a) extracellular domain (human) (UniProt P12318); test: as above
[4] = target: human FcγRIIA_131R (CD32a) extracellular domain (human) (UniProt P12318); test: as above
[5] = target: human FcγRIIIA_158F (CD16a) extracellular domain (human) (UniProt P08637); test: as above
[6] = target: human FcγRIIIA_158V (CD16a) extracellular domain (human) (UniProt P08637); test: as above
Chain of human FcγRIIIA_158V (CD16a) extracellular domain (human) (P08637 17-208 F176V): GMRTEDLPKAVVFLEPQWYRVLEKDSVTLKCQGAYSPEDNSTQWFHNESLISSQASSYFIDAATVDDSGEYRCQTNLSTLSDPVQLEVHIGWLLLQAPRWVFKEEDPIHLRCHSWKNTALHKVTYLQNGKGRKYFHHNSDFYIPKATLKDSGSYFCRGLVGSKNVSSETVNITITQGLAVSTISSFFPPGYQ

Chain of human FcγRIIA_131H (CD32a) extracellular domain (human) (P12318 34-217): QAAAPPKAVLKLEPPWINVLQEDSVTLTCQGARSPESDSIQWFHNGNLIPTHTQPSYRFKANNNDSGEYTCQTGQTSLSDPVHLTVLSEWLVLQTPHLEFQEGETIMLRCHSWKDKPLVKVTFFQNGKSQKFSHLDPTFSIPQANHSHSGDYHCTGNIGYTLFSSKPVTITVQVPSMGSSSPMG
Chain of human FcγRIIb (CD32b) extracellular domain (human) (P31994 43-217): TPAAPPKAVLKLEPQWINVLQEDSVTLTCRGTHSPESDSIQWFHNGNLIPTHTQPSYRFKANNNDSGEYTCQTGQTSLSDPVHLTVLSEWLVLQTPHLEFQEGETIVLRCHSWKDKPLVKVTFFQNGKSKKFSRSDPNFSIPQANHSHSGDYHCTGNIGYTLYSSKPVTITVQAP
Chain of human FcγRIIA_131R (CD32a) extracellular domain (human) (P12318 34-217 H167R): as the sequence (P12318 34-217) above, with H134R counted along it
Chain of human FcγRI (CD64) extracellular domain (human) (P12314 16-292): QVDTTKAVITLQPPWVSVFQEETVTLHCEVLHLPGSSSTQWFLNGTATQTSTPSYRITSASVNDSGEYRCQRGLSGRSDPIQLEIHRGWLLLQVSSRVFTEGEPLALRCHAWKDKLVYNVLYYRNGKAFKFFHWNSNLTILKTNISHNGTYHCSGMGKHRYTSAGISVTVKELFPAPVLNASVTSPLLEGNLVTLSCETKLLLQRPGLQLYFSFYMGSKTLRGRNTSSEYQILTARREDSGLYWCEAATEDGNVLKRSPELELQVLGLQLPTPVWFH
Chain of human FcγRIIIA_158F (CD16a) extracellular domain (human) (P08637 17-208): as the sequence (P08637 17-208 F176V) above, with V160F counted along it

Row | Substance | Kd [1] [nM] | Kd [2] [nM] | Kd [3] [nM] | Kd [4] [nM] | Kd [5] [nM] | Kd [6] [nM]
1 | Hu IgG1 (antibody) | 0.0521 | 3110 | 680 | 740 | 1290 | –
2 | Hu IgG4 SP (antibody) | 0.419 | 2780 | 5310 | 2310 | – | 7350
